Source: publication PMC6344859, “Structural basis for acceptor RNA substrate selectivity of the 3′ terminal uridylyl transferase Tailor”

Legend:
Tailor (DmTailor180-560) [1] = target: T1, Tailor (DmTailor180-560) (Drosophila melanogaster, UniProt Q9VI58 180-560); test: crystal structure (1.85 A); two Mg2+; Crystallization conditions not in material; protein stock 20 mM HEPES pH 7.0, 150 mM KCl, 2 mM MgCl2, 1 mM DTT; details: protein: recombinant; tags: none after TEV cleavage (His6-MBP removed); single strand
T1 sequence (Q9VI58 180-560): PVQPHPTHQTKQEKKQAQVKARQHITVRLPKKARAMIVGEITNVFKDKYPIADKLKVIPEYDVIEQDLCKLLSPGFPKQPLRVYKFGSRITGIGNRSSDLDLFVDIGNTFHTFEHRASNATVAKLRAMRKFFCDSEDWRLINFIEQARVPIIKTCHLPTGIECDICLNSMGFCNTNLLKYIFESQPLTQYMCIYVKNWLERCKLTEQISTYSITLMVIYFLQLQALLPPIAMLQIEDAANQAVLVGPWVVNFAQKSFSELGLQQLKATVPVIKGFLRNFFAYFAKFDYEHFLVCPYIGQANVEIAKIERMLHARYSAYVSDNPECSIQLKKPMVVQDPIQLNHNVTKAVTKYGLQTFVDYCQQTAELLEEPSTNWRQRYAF

Tailor (DmTailor180-560) [2] = target: T1, Tailor (DmTailor180-560); test: crystal structure (2.0 A); two Mg2+; Crystallization conditions not in material; protein stock 20 mM HEPES pH 7.0, 150 mM KCl, 2 mM MgCl2, 1 mM DTT; details: protein: recombinant; tags: none after TEV cleavage (His6-MBP removed); single strand

CACAGU (ssRNA): binds (Tailor (DmTailor180-560) [1]).

UUUUUU (ssRNA) [U6]: binds (Tailor (DmTailor180-560) [2]).
